Source: IntAct's records for PubMed 25752543

B1: Vascular endothelial growth factor C (Mus musculus), P97953-1 (parent)
chain: MHLLCFLSLACSLLAAALIPSPREAPATVAAFESGLGFSEAEPDGGEVKAFEGKDLEEQLRSVSSVDELMSVLYPDYWKMYKCQLRKGGWQQPTLNTRTGDSVKFAAAHYNTEILKSIDNEWRKTQCMPREVCIDVGKEFGAATNTFFKPPCVSVYRCGGCCNSEGLQCMNTSTGYLSKTLFEITVPLSQGPKPVTISFANHTSCRCMSKLDVYRQVHSIIRRSLPATLPQCQAANKTCPTNYVWNNYMCRCLAQQDFIFYSNVEDDSTNGFHDVCGPNKELDEDTCQCVCKGGLRPSSCGPHKELDRDSCQCVCKNKLFPNSCGANREFDENTCQCVCKRTCPRNQPLNPGKCACECTENTQKCFLKGKKFHHQTCSCYRRPCANRLKHCDPGLSFSEEVCRCVPSYWKRPHLN
partner: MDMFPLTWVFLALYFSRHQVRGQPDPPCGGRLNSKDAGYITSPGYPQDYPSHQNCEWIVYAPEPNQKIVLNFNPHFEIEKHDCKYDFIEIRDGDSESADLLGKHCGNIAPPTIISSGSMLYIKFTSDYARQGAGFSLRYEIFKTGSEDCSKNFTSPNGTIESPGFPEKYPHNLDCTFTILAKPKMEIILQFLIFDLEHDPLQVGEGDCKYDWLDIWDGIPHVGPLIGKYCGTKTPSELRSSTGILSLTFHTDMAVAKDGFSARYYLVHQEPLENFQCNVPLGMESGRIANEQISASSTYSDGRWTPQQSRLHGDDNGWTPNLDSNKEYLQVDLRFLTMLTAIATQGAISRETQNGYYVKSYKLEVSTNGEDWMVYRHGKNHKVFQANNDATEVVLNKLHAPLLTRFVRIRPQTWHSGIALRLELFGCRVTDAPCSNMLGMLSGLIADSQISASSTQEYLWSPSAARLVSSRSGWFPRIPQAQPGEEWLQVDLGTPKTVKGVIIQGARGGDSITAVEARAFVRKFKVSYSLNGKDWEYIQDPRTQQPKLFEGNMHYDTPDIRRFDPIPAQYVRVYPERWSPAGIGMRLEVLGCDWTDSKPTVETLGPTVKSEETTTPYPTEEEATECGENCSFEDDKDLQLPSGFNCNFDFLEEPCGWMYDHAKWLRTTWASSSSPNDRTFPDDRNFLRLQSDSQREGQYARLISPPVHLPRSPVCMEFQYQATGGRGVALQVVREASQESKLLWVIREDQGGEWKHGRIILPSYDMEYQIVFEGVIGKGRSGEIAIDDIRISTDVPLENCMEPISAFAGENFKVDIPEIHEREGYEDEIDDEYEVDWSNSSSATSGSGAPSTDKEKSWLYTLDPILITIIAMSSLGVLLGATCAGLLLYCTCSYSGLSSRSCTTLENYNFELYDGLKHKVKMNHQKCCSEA
B2: Neuropilin-2 (Homo sapiens), O60462 (parent)
chain: B1 partner
partner: B1 chain

Variants of: B1
Conditions: with nrp2_human NRP2, O60462

Variant	effect of a mutation on the interaction
R223E	decreasing interaction strength

Variants of: B2
Conditions: with Vegfc

Variant	effect of a mutation on the interaction
T319R	disrupting interaction strength
